Experiment: soluble on expression in E. coli; label from the status in PepcDB or PDB records

Row | Sequence | soluble on expression in E. coli
1 | MPTNCAAAGCATTYNKHINISFHRFPLDPKRRKEWVRLVRRKNFVPGKHTFLCSKHFEASCFDLTGQTRRLKMDAVPTIFDFCTHIKSMKLKSRNLLKKNNSCSPAGPSNLKSNISSQQVLLEHSYAFRNPMEAKKRIIKLEKEIASLRRKMKTCLQKERRATRRWIKATCLVKNLEANSVLPKGTSEHMLPTALSSLPLEDFKILEQDQQDKTLLSLNLKQTKSTFI | not soluble
2 | MDSRSLSVHDGAMQTLTVPDSGLAPLLPGQRLARGVCRHLRSHDFVSVVELVPAPGLRVDVMALGPKGEIWVVECKSSRADYQSDRKWQGYLDWCDRFFFAVDEAFPVDLLPEGTGLMLADGYDAEILRIGPEGRLAPARRKAVIQGFARHAALRLQGLRDPGAFPG | not soluble
3 | MCLARSISRRENYKPLKSKVMTKRNVGRPPKNERADHCCMVRFTDTEFARFLTLFEQSGLQNRAAFIKARVFNETFRVIKVDRSLLDYYQKLTTLYGQFRSVGVNYNQTVVALKSNFTEKKAFAMLTKLEKLTLELAIIGGEIVQLTRKFQEKWQHRQ | not soluble
4 | MSLGIKMRSVVVKEPGQLNIESRPVPVPGAHEVRVKIAFAGICGSDVHIYHGHNPFAKYPRVIGHEFYGIIDAVGEQVSPARIGERVAVDPVVSCGHCYPCSVGRPNVCTQLQVIGVHRDGGFSDYACVPAKNAWRIPEAISDRQATMVEPFTIAANITAQLQPTAQDIALVYGAGPMGLTIIQALKGVYGVKQVIVVDRIAERLQMARENGADLTLDNTDQPLAEQLAQRQLAPTLVIDAACHPAILQEAILLASPAARIGILGFSGEASTLTQQSITSKEISIFSSRLNSGRFPLVIDWMEKGLIRPEALITHCMPLEQVKEAMEIFANDRKTCCKVLLQLGEGHHHHHH | soluble
5 | MVLKERHKKICLLPSYSRLAHYPGLLMLTTLIYRSHIRGDEPVKKIEEMVSIANRRNMRSDVTGILLFNGSHFFQLLEGPEEQVQMIYRAICQDPRHYNIVELLCDYAPARRFGKAGMELFDLRLHERDDVLQAVFDKGTSKFQLTYDDRALQFFRTFVLATEQSTYFEIPAEDSWLFIADGSDKELDSCTLSSNINDHFAFHPIVDPLSRRIIAFEAIVQKNEDSPSAIAVGQRKDEEIYTADLKSKALAFAMAHALKLGDKMISINLLPMTLVNKPDAVSFLLDEIKANALVPEQIIVEFTESEVISRFDEFAEAVKSLKAAGISVAIDHFGAGFAGLLLLSRFQPDRIKISQELITNVHKSGPRQAIIQAIMKCCTSLEIQVSAMGVATPEEWMWLESAGIEMFQGDLFSKAKLNGIPSVAWPEKK | not soluble
6 | MTVVLTLLLLLVLVGCAKPKVEQTVKLGGAVKTIGDLVVLSGNSNLPKGAVVQIVMKEIEGGKQVLEEKVKVGGDGSYSWSAKRPERAKEYELDVMFLPELQPKHVKEKYGEKGELIKKDSSGRVEYQTDGQTYVGIKMYDRILKIGDGMGGQQSMLAETLPPPPPSY | not soluble
7 | MQVDDWIVGLEVEIFTFDGKEYRGIVYTYDADANCVVLARKSQDSLKSDLRILKASLVKNINVLGRSNVDQLPQQLSPLNLEALKMREEQALQKARKDLARTGVGVSQQAQEIFDALCKTLPCQWEEDSIVIFENIKLKKPYRVEDLEGSEIEAVNRVKVVLENELQKLQRRNT | soluble
8 | GSHMDLLDPVDILSKMPKDFYDKLEEKKWTLRKESLEVLEKLLTDHPKLENGEYGALVSALKKVITKDSNVVLVAMAGKCLALLAKGLAKRFSNYASACVPSLLEKFKEKKPNVVTALREAIDAIYASTSLEAQQESIVESLSNKNPSVKSETALFIARALTRTQPTALNKKLLKLLTTSLVKTLNEPDPTVRDSSAEALGTLIKLMGDKAVTPLLADVDPLKMAKIKECQEKAEIKIKVAG | soluble
9 | MIDFSNIETYWPMTSSAFGLFITQGGLKPIFTSLNHMWYSKYGYLTERKAKLKEIENEYIYEIEKRKLENQEKFKNEIDCEFSKIPQTSLKEPVEYILYPAINESEQYLSNETLRNMFARTIASTFNQDKEKDLHSAFVQIIKQMTPLDAQNLLLINQEGNNLIANLQIGVHYSKENLSGTVNKANNIYLSKLDYSPDIIASSIDNLTRLGLIKVDYLHYPLDSNYESIKQTTIYKSLESEINTLNLFKTSNTKYDIKIEKGKVSLTDFGKKFISVCLE | not soluble
10 | MEIDGGPPPFCGVAVDDSYDKSEQHEYDEVDDSPDSTSLPLPSASRSRSVTPVKDMAAGHEAVPEASDNNEKGDTMTTALSQDEFTGFQNSEIQKEEDDDDDEWGDFGEAVVAAAPIQARPQSPPPSLKMDGFNNEDDDDDDDWGAFDQARPSTDRTESSPNSSRSQEARHQQSLDEWGAFENSNDLKANGDEWQAEFSSASDVPPPPSDTVLENLELLDEMLENVEFWHDGFQEECREEEESPEMDVVDIPALFDSENLVEMVNSFEVERQRDSRLWLSLRLVEEAISLKFDWNNSEIRKNHLKSLKINPVTAKKEPRAMNSFFDTSNLLLPTPIQATTTSSSTESSHDSSATATNPKTSSSSPPSSVIDSPSVPAVDFDWDTSGLTNPMNRASKHLHELSKKCRNLVCSVSTNCINLLKCC | not soluble
11 | GESSKSGYQTTGENNSSDYQGIIEDGEYKTSKSRGVGISQNSDNLLNLKSFEAGLTTISKDHFSTKSYIFQEGQYLNKATIQDWLGRKSSSNPEGLNPSDNGKKEANKRNPIYVQQIEEQDYMKQNNGKLELAGMTIGIGMNQKDYYQKEQYGATYSTTISKEKRIEEGKIAAKKVLARVRQKVGNNVPIVIAMFAQAPNDSLVGGYFYSYTVSKSGTDIGSWTETNIKSYVLPATEDNKLPNDNDSTSFDNFQKEVKNFFPNISNVTGQGQYKDKTLQGLHITITTQFYSETEITSFTQYVAQAAKSYLPSGIPVDIKINGSDGETQSFVSTTGGNGGYYTHVFGSY | soluble
12 | MSTSSRTPSPSSLSACGGPSSSTTTAHPSSSPKSKTSVTSSRSDTDSVIPEHKPSSASSFSIGRLLFRSSGSSNSTKRDSVDSGKDDETGRSPATSRPGSPNPGGDKSPQMSTSRRLAGFASRSIRKSQWRLFKHRTFFGSQRSSMKKNQLQLPRLTLRHPSIDSSAMPLQLDVDENASGEGSDDFLQIRRSTQRRWTDSDTTGRLRDSRDSSDFNDSHDTLDIAGTSAHGVADSSSHHHHNYSMTAPVSPNVPLSASSSHSEGWKYSSQKLLWKLKPKYAYSHASSTSSSTDSAWKSLDSMTWRSVDGAEVVLRGARLENLSEIERSALQLLAAQRLTKMLPGVNLGKPKALRQKRQKLVKSNRTPTVADVQRRASGTPMPEEKRVFGVSLAMCMLNEKRLDQESRCRSLDDSTVIMLNKSKAKPTKSEPEMMSHTMPEDRKWLYPSTQNLYPTSTSNPSSPSPIMGSAPPTGSILPSANLLSAEPTTCEPQQVTGRFLKKQRPASASFSCSLDANIDDVDPHALQVPKIVENCTQYLMTYGLTQVGLFRVAGNTKRCRQLRNALEKVGGGAVINDNMVENTTSHDVATLLKEYFRDLPQSLLPGEHYSAYIGAAKLNVDERIEAIRLLFALLVSPILDTLFVLLKFLHEVSCHSQDRHDEDGELLSGNKMDARNLATIFAPSILRVDHDKLHETLAENEHQVIIVETMISNVEEIFKIPKELQCKIYTKLRETEPDRLDRILNHLSKMDSHESHPGVLLSPFPATLEEDSSPRHHRHGDHSHIGRQSPLARELTTNGKVKVQSQRSGSWPFSLTKTQTSPSRPEGQHFFPADSQDGPGPSHSHHDPSTSGTTMSATTTPGPGRKTDFSMKAADDSGRDSEFCSDELTFGTISQPETARERSVTMSTACGSPSTSNSKKTPMMASLQGATTSKSVDARSPSRERVDIRSAARSSAAAARRRLRNVVRAFRFTSMTRSTPDIAQSS | not soluble
13 | METKWRNGDIVQPVLNPEPNTVSYSQSSLIHLVGPSDCTLHGFVHGGVTMKLMDEVAGIVAARHCKTNIVTASVDAINFHDKIRKGCVITISGRMTFTSNKSMEIEVLVDADPVVDNSQKRYRAASAFFTYVSLNQEGKPMPVPQLVPETEDEKKRFEEGKGRYLQMKAKRQGHTEPQP | soluble
14 | MPDSDTGSNMAHTMTAAVQQAQGVDNPDDLAAVAMALATGAVKGARGNSGVVLSQVLRGIAHHADSGRIDAHVIQEALRSSLDFVAAAISDPVEGTVITVLRAAAIAATNSEDRSLAAVVSVAAHAARIALAETPSQLQVLRDAKVVDAGGQGLVILLDCLEHVVTGTATSYDPHIIETTEQQQSHGTSGYLEVMCFIAGVEVSHLHDLLAPLGDCLVIGPISDTSATVHIHSTDAATVISTLYATGTITDLHIEVLPETPKVVHPKRIVLALTPPGDLAQLYTDAGALVVVRDGHHFAIARSTNLGQAETPLADGIEIVNELVARSHQSGAQEVILLPNGLLTTQEMAAVERSSQAFKQSITMLPTGSLVRGLAALSVHDPQQSLAVATYAMTEAMSGMRTAVIERAEHAALTPAGACAKGDLLVHLGTEPIAVAEQPEEALRIACRRLLDIGGEQILILARKELALTPDNHSLTGPHTDVEINQYDVDRLGALIEIGVE | not soluble
15 | MGSDKIHHHHHHMTSSAPLIDFAHDLRYEDIPVHVRSIVREQIIATVGSILGGAQLPVAKSFEQSILATFGRGESSAFGAGTGMSAASAALYNSGLAQLLDWEDWVLISHVGAAVVPVAWALAEERGLRLNDVIVAVTIGNEIAGRTSRAIQRGAYLGNGLPNHQIELPLVAGRLLGLDRRQLGYALGHSCYMAMENCPVGWTTDSKLLVNGLPAMWAIASANMARQDIVGRGDIVEHPAGYLATVSESIDFKELTRDIGVKWYTETLSTKKHAGCAYNLPAAECAMSIREEIAPEDVERIVVECSTATLYVGGRYDDFEPGVLDAYEQGLLTHVGLCFDTKFCVAAAYVHGDLIHEQYLVENATDARVKALYGKISLVPSERLQKAQFQDFKYGATVTVHGRDGRTATRTVEQMLGGYDRPFDHATKLADGARGLLPPEAVDGIVARLRDETGNPLASEISTLINGAP | not soluble
16 | MDAQGLRLITALKLCILATKKDGTPLYSDREQYIFSELYGLEGNEIQNMISLGDKLGLSRERIRQLKVKVFKKFGILRKRNIPAIIDIDNLLTNNHQINLDEVHNFACYLKKFQESHLSEYPIETLFDLAQLYFKQDYSIIKTWKREIKETSTIFPKKQNSQLTDITNKIIWFDHVKSWTLEEIHQITPHRNYDPNKKYLESEAGEFYSNKLQRNVFYESMLEKKFYKRLEKSHEVIYYVEQGITITYDRGKYTPDAIVFLDDGKGFVVEIKPLTEMANQSVQKKFKALLDFCEETGLGATLTDGRTDINHIFETIPNLAFEESILQSLKEFKKLTYGKVNELKNKYQVTTIHLLQCIIKNNLSYNSMPTFIWKTKKPIICDLLLSPENKMLLKGSTDIINNDKTLEHHHHHH | not soluble
17 | SVADANGSSSSSFNFLIYGKTGWIGGLLGKLCEAQGITYTYGSGRLQDRQSIVADIESVKPSHVFNAAGVTGRPNVDWCESHKVETIRTNVAGTLTLADICREKGLVLINYATGCIFEYDSGHPLGSGIGFKEEDTPNFTGSFYSKTKAMVEELLKNYENVCTLRVRMPISSDLTNPRNFITKIARYEKVVDIPNSMTILDELLPISIEMAKRNLTGIYNFTNPGVVSHNEILEMYRDYIDPSFTWKNFTLEEQAKVIVAPRSNNELDATKLKTEFPELMSIKESLIKFVFEPNKKTEVKA | soluble
18 | MGSDKIHHHHHHMKGIDVSSYQGTIAWGKVKWAGVQFAILKIIRKDLNPDKTFEQNWQGCTEAGMPIQGVYNYSYATTTEKAKTDAKRVIEVLAGRKTFVWLDVEDRCQQGLGQTLIDIINTYQSEIKTAGLEFGVYTGLSFYNTYILPYANQINCPFWIARYPSTKGMTIGDDPNDAKKPAIAHSLYGWQYTSAFTCSGLNNSTDANLLYVELGTKDTTAASQPVSAPVKPNNESWKGDIDYYLESEEVRKWQHAMNVGFDLKGADALKEDGKFGADSQAFAKSHNLWNGQKHYCPTAIKWLRRTLHDVYSFTKLDTDYKEWSDYLSKCVMVFQKNRGLTQDARVGLLTTYRLLKG | not soluble

— the DeepSol protein solubility set
